Patent US20030198640A1 (Human Genome Sciences, published 2003)

B2: full length TNF-gamma-beta expressed on the cell surface (HEK293F stable transfectants; cells transfected with TNF-gamma-β) (ligand)
chain: MAEDLGLSFGETASVEMLPEHGSCRPKARSSSARWALTCCLVLLPFLAGLTTYLLVSQLRAQGEACVQFQALKGQEFAPSHQQVYAPLRADGDKPRAHLTVVRQTPTQHFKNQFPALHWEHELGLAFTKNRMNYTNKFLLIPESGDYFIYSQVTFRGMTSECSEIRQAGRPNKPDSITVVITKVTDSYPEPTQLLMGTKSVCEVGSNWFQPIYLGAMFSLQEGDKLMVNVSDISLVDYTKEDKTFFGAFLL
notes: also called TNF-gamma-beta expressing cells
B3: human LIGHT protein, natural secreted form (aa 83-240), E. coli (ligand)
chain: LIQERRSHEVNPAAHLTGANSSLTGSGGPLLWETQLGLAFLRGLSYHDGALVVTKAGYYYIYSKVQLGGVGCPLGLASTITHGLYKRTPRYPEELELLVSQQSPCGRATSSSRVWWDSSFLGGVVHLEAGEEVVVRVLDERLVRLRDGTRSYFGAFMV
notes: also called soluble LIGHT
B5: full-length human TR6 (without Fc), baculovirus/Sf9 (receptor)
chain: VAETPTYPWRDAETGERLVCAQCPPGTFVQRPCRRDSPTTCGPCPPRHYTQFWNYLERCRYCNVLCGEREEEARACHATHNRACRCRTGFFAHAGFCLEHASCPPGAGVIAPGTPSQNTQCQPCPPGTFSASSSSSEQCQPHRNCTALGLALNVPGSSSHDTLCTSCTGFPLSTRVPGAEECERAVIDFVAFQDISIKRLQRLLQALEAPEGWGPTPRAGRAALQLKLRRRLTELLGAQDGALLVRLLQALRVARMPGLERSVRERFLPVH
notes: also called soluble TR6; non-Fc form of TR6

How the values were obtained:
[1] = biological target: T1, TNF-gamma-β polypeptide (amino acid residues 72-251 of SEQ ID NO:2), untagged recombinant protein (human, UniProt O95150 72-251); assay: BIAcore, control receptor surface
T1 construct: also called TL1β
T1 sequence: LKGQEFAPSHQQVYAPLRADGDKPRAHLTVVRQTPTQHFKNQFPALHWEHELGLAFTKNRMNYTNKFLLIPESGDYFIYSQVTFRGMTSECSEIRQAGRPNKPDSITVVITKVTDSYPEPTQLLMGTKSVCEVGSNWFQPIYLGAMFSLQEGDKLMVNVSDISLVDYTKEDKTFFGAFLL
Description: (§1) TNFR-Fc were covalently immobilized to the BIAcore sensor chip (CM5 chip) via amine groups using N-ethyl-N′-(dimethylaminopropyl) carbodiimide/N-hydroxysuccinimide chemistry. […] The amount of bound protein was determined during washing of the flow cell with HBS buffer (10 mM HEPES, pH 7.4, 150 mM NaCl, 3.4 mM EDTA, 0.005% Surfactant P20). The flow cell surface was regenerated by displacing bound protein by washing with 20 microliters of 10 mM glycine-HCl, pH 2.3. For kinetic analysis, the on and off rates were determined using the kinetic evaluation program in BIAevaluation 3 software using a 1:1 binding model and the global analysis method.

[2] = biological target: T2, TR6-Fc (full-length human TNFR-6 alpha, SEQ ID NO:6 aa 1-300, fused to the Fc domain of human IgG1) (human, UniProt O95407 30-300); assay: FACS on transfected cells
T2 construct: also called TNFR-6 alpha Fc fusion protein; DcR3-Fc; not shown: Fc domain of human IgG1
T2 sequence: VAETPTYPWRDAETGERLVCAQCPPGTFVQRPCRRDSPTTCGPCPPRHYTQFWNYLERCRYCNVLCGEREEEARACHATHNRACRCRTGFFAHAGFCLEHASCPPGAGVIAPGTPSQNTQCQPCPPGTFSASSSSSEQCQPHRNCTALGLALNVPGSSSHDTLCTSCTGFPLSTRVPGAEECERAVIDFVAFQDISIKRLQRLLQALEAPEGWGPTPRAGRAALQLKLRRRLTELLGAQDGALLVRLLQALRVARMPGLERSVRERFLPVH

[3] = biological target: T3, DR6 (Fc-fusion form of the extracellular domain) (UniProt O75509 42-349, limits assumed); assay: flow cytometry on HEK293F cells expressing full length TNF-gamma-beta
T3 construct: extracellular domain; not shown: Fc part
T3 sequence (looked up): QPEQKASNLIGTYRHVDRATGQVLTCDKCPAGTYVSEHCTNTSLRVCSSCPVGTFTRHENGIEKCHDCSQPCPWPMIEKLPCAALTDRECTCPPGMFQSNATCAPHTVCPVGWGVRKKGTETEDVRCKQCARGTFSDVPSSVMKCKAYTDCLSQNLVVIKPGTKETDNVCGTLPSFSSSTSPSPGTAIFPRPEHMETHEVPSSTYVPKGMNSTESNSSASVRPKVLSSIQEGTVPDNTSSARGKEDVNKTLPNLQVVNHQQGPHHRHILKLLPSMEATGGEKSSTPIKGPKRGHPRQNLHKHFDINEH
Description: (§2) These cells were used to screen the Fc-fusion form of the extracellular domain of TNFR family members, including TNFR1, Fas, HveA, DR3, DR4, DR5, DR6, DcR1, DcR2, TR6, OPG, RANK, AITR, TAC1, CD40, and OX40. […] TR6 has been previously described as a decoy receptor (Pitti et al., Nature 396:699-703 (1998); Yu et al., J. Biol. Chem. 274:13733-6 (1999)) capable of competing with Fas and HveA for binding of FasL and LIGHT, respectively.
(§3) One million cells, in 0.1 ml of FACS buffer (PBS, 0.1% BSA, 0.1% NaN₃), were incubated with 0.1-1 microgram of protein or antibody at RT for 15 min. The cells were washed with 3 ml of FACS buffer, reacted with biotinylated primary antibody, and stained with PE-conjugated secondary antibody at RT for 15 min. Cells were then washed again, resuspended in 0.5 microgram/ml of propidium iodide, and live cells were gated and analyzed on a FACScan using the CellQuest software (BD Biosciences).

[4] = biological target: B5; assay: BIAcore; non-Fc TR6
[5] = biological target: T2, TR6-Fc (full-length human TNFR-6 alpha, …); assay: BIAcore; TR6-Fc form
Description: (§4) The amount of bound protein was determined during washing of the flow cell with HBS buffer (10 mM HEPES, pH 7.4, 150 mM NaCl, 3.4 mM EDTA, 0.005% Surfactant P20). The flow cell surface was regenerated by washing off the bound proteins with 20 microliters of 10 mM glycine-HCl pH 2.3. […] The on- and off-rates were determined according a kinetic evaluation program in the BiaEvaluation 3 software using a 1:1 binding model and the global analysis method.
(§5) We determined the kinetics of binding of LIGHT to both the Fe and non-Fc versions of TR6 according to BIAcore analysis.

[6] = biological target: T4, TR2-Fc (extracellular domain of human TR2, aa 1-192, fused to the Fc domain of human IgG1) (human, UniProt Q92956 39-192); assay: BIAcore, TR2-Fc immobilised; TR2-Fc, not TR6
T4 construct: range 1-192; also called HveA-Fc; not shown: Fc domain of human IgG1
T4 sequence (looked up): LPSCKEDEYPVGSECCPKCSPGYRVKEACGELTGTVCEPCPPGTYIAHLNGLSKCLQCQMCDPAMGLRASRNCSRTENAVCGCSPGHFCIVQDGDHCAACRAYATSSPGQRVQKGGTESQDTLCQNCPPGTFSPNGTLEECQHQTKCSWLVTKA

[7] = biological target: T5, FLAG-tagged soluble form of TNF-gamma-beta (aa 72-251) (human, UniProt O95150 72-251); assay: co-immunoprecipitation with protein A-Sepharose, anti-Flag blot
T5 construct: also called FLAG-TL1β; FLAG-TNF-gamma-beta; not shown: FLAG tag of the pFLAG-CMV-1 vector at the amino terminus
T5 sequence: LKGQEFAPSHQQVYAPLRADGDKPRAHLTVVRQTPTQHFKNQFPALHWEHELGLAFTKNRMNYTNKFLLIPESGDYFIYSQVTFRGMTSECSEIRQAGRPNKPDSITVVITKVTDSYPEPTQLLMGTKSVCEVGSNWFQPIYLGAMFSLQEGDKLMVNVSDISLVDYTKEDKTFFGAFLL
Excerpt: The beads were then precipitated and washed extensively with PBST buffer (PBS, 0.5% Triton X-100) before boiled in SDS-sample buffer. Proteins were resolved on 4-20% Tris-Glycine gels (NOVEX), transferred to nitrocellulose membranes, and blotted with anti-Flag M2 monoclonal antibody (1 microgram/ml, Sigma) and horseradish peroxidase (HRP)-conjugated goat anti-mouse IgG antibody (0.5 microgram/ml).

[8] = biological target: B2; assay: flow cytometry on HEK293F cells expressing full length TNF-gamma-beta
Description: as §2, §3

[9] = biological target: B3; assay: BIAcore
Description: as §4, §5

[10] = biological target: B2; assay: flow cytometry competition on HEK293F cells expressing TNF-gamma-beta; competitor of DR3-Fc
Description: as §2, §3

[11] = biological target: T2, TR6-Fc (full-length human TNFR-6 alpha, …); assay: flow cytometry on 293 cells overexpressing LIGHT
Description: Cells were incubated with Fc-fusion proteins in 100 ul FACS buffer (d-PBS with 0.1% sodium azide and 0.1% BSA) for 15-20 minutes at room temperature. The cells were washed once and reacted with goat F (ab)₂ anti-human IgG (Southern Biotechnology, Birmingham, Ala.) for 15 minutes at room temperature. After wash, the cells were resuspended in 0.5 ug/ml propidium iodide, and live cells were gated and analyzed on a FACScan (BD Biosciences, Mansfield, Mass.).
This was tested on 293 cells overexpressing LIGHT according to flow cytometry.

[12] = biological target: B5; assay: flow cytometry competition on activated human T cells
[13] = biological target: T1, TNF-gamma-β polypeptide (amino acid …); assay: BIAcore, DR3-Fc immobilised, three batches of TNF-gamma-beta; DR3-Fc
Description: as §1

[14] = biological target: T1, TNF-gamma-β polypeptide (amino acid …); assay: BIAcore, DR3-Fc immobilised, average of three batches; DR3-Fc, average of three batches
Description: as §1

B1: BCMA-Fc (Fc fusion, human, UniProt Q02223 1-54, looked up)
chain: MLQMAGQCSQNEYFDSLLHACIPCQLRCSSNTPPLTCQRYCNASVTNSVKGTNA
notes: not shown: Fc part
B1: no binding (tested: 370 nM (top of the range 3-370 nM)) [1].

B2: binds [2]; no binding [3].

For B3, the Kd [4] was 14.3 nM, the koff [4] was 0.00483 s⁻¹ and the kon [4] was 338000 M⁻¹ s⁻¹. The Kd [5] was 5.46 nM, the koff [5] was 0.0023 s⁻¹ and the kon [5] was 422000 M⁻¹ s⁻¹. It also gave a Kd [6] of 4.56 nM.

B4: TACI-Fc (extracellular domain of human TACI, aa 1-159, fused to the Fc domain of human IgG1) (Fc fusion, UniProt O14836 1-159, looked up)
chain: MSGLGRSRRGGRSRVDQEERFPQGLWTGVAMRSCPEEQYWDPLLGTCMSCKTICNHQSQRTCAAFCRSLSCRKEQGKFYDHLLRDCISCASICGQHPKQCAYFCENKLRSPVNLPPELRRQRSGEVENNSDNSGRYQGLEHRGSEASPALPGLKLSADQ
notes: range 1-159; also called TAC1 (Fc-fusion); not shown: Fc domain of human IgG1
B4: no binding [7]; no binding [8].

For B5, the “fold off rate against TR6-Fc” value [9] was roughly 2 fold and the “molar ratio TR6 to DR3-Fc at which no DR3-Fc binding was detected” value [10] was 2 molar ratio (TR6:DR3-Fc).

B6: full-length human LIGHT on cells (293F stable transfectants; endogenous LIGHT on activated human T cells) (ligand)
chain: MEESVVRPSVFVVDGQTDIPFTRLGRSHRRQSCSVARVGLGLLLLLMGAGLAVQGWFLLQLHWRLGEMVTRLPDGPAGSWEQLIQERRSHEVNPAAHLTGANSSLTGSGGPLLWETQLGLAFLRGLSYHDGALVVTKAGYYYIYSKVQLGGVGCPLGLASTITHGLYKRTPRYPEELELLVSQQSPCGRATSSSRVWWDSSFLGGVVHLEAGEEVVVRVLDERLVRLRDGTRSYFGAFMV
notes: also called cell membrane LIGHT; LIGHT-transfectants
B6: binds [11]; binds [12].

B7: DR3-Fc (extracellular domain of human DR3, aa 1-199, fused at its C-terminus to the Fc domain of human IgG1) (Fc fusion)
chain: QGGTRSPRCDCAGDFHKKIGLFCCRGCPAGHYLKAPCTEPCGNSTCLVCPQDTFLAWENHHNSECARCQACDEQASQVALENCSAVADTRCGCKPGWFVECQVSQCVSSSPFYCQPCLDCGALHRHTRLLCSRRDTDCGTCLPGFYEHGDGCVSCPTSTLGSCPERCAAVCGWRQ
notes: not shown: Fc domain of human IgG1
Binder B7 has a koff [13] of 0.00413 s⁻¹, a kon [13] of 639000 M⁻¹ s⁻¹ and a Kd [14] of 6.45 nM.
